The test system of the assay is Hela cells. Kind of assay: Flow cytometry binding to Hela cells. As to conditions: transfection supernatant, FIG. 1. The protocol: The binding activity of the antibodies to Hela cells (ATCC® CCL-2, provided by COBIOER) and to RPTEC/TERT1 cells (ATCC® CRL-4031, provided by COBIOER) was tested by flow cytometry using the transfection supernatants. Briefly, target cells were digested with 0.02% EDTA-2Na, centrifuged at 1500 rpm for 3 mins, and resuspended with PBS. After counting, the cells were added to a 1.5 ml centrifuge tube with 1×10^6 cells per tube, centrifuged at 1500 rpm for 5 minutes, and the supernatant was discarded. Then all the operations were carried out on an ice bath. 100 μL of transfection supernatant was added to each 1.5 ml centrifuge tube. Blank cells, blank cells plus secondary antibody, medium and HEK293 supernatant were set up as the controls. The reaction was performed on an ice bath for 1 hour. Then the cells were pelleted and washed twice with PBS. The secondary antibody, goat anti-Human IgG (PE, abcam, ab98596), was diluted (1:200) and added using 100 μL per tube. The reaction was performed on an ice bath for 1 hour in the dark. The cells were pelleted again and washed twice with PBS, resuspended in 300 μL PBS, and FL2 fluorescence readings were measured by cytometry. The results were analyzed by FlowJoTM10 software.
Anti-FOLR1 antibody binding to Hela and RPTEC/TERT1 cells was tested by FACS. The study was carried out as described above. […]

B1: F40: fully human anti-FOLR1 antibody (IgG1), VH SEQ ID NO:9, VL SEQ ID NO:10 (antibody, V domains shown)
VH: EVQLLESGGGVVQPGRSLRLSCAASGFTFSSYAMHWVRQAPGKGLEWVAVISYDGSNKYYADSVKGRFIISRDNSKNTVYLQMNSLRAEDTAVYYCARPTYVFTYTGSSFDYWGQGTQVTVSS
VL: DIQVTQSPSSLSASLGDTVSITCRASRGLTDSVAWYQQKPGQAPKLLIYAASTLQSGVPSRFGGSGSGSYFTLTITSLQPEDVATYYCQNYKSAPWTFGQGTKVEIK
modifications: Synthetic F40 VH amino acid sequence; Synthetic F40 VL amino acid sequence
Consider B1, for which the “Hela cell binding (in words)” value was “weakly positive”.

The record behind these values is US20240209080A1, “FOLR1 BINDING AGENTS, CONJUGATES THEREOF AND METHODS OF USING THE SAME” (PROFOUNDBIO US CO., priority 2021, published 2024).
